Data on one molecule can be found in article PMC3513293 (PLoS ONE, 2012).

A word on the Kd: it is a measure of binding affinity in units of concentration. The term stoichiometry N denotes the number of molecules, sites or subunits per partner or assembly.

Data set [1] addresses T1, p97/Valosin-containing protein (VCP), full length (UniProt P55072 1-806).
T1 construct: Homohexamer by gel filtration and DLS; also called p97/VCP; full length p97; source: E. coli Rosetta DE3, purified (nickel IMAC, Superose 6 gel filtration; hexameric 13.5 ml fraction)
The data set can be described thus: SPR; Biacore 3000; p97/VCP immobilised on CM5 by amine coupling; two-fold dilution series of p47 (from 1.92 μM) or UN (from 1.88 μM) injected at 30 μl/min, 25°C, PBS with 5 mM β-mercaptoethanol and 0.005% p20; no nucleotide; Langmuir 1:1 fit (p47) or Interaction Map Analysis (UN). Particulars: both partners purified.

For data set [2], the target named is T1, p97/Valosin-containing protein (VCP), …. In words: SPR; Biacore 3000; p47 immobilised on CM5 by amine coupling; p97/VCP injected, 30 μl/min, 25°C, PBS; Langmuir 1:1 fit. Particulars: both partners purified.
Data set [3] deals with the molecule itself. In words: SEC; Superose 6 10/300 GL in PBS with 5 mM β-mercaptoethanol and 0.005% p20; calibrated with thyroglobulin, ferritin, lactate dehydrogenase and BSA. For orientation: SEC sorts molecules by how far they enter the pores of the column.

T1 sequence (P55072 whole entry): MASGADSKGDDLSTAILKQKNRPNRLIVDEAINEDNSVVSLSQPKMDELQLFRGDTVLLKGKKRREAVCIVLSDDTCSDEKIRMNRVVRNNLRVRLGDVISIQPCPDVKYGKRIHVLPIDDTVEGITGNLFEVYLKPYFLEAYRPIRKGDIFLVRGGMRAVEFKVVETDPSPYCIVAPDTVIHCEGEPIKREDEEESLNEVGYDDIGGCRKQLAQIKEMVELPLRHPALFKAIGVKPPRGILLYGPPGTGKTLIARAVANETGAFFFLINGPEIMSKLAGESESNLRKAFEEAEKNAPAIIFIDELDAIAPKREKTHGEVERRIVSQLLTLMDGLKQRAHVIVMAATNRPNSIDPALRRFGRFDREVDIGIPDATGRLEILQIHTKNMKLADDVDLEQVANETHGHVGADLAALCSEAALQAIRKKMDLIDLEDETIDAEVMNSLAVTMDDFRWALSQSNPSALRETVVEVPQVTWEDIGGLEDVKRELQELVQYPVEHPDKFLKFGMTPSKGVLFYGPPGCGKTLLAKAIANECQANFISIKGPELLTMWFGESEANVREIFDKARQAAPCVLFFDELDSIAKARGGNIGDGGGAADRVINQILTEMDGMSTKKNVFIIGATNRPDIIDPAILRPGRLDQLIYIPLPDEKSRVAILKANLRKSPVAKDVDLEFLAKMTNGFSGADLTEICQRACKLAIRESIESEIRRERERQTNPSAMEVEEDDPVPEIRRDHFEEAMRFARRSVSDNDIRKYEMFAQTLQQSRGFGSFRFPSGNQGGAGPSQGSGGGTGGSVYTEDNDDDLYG

B1: p47 (natural protein, UniProt O35987 1-370, looked up)
chain: MAEERQDALREFVAVTGAEEDRARFFLESAGWDLQIALASFYEDGGDEDIVTISQATPSSVSRGTAPSDNRVTSFRDLIHDQDEEEEEEEGQRFYAGGSERSGQQIVGPPRKKSPNELVDDLFKGAKEHGAVAVERVTKSPGETSKPRPFAGGGYRLGAAPEEESAYVAGERRRHSGQDVHVVLKLWKTGFSLDNGDLRSYQDPSNAQFLESIRRGEVPAELRRLAHGGQVNLDMEDHRDEDFVKPKGAFKAFTGEGQKLGSTAPQVLNTSSPAQQAENEAKASSSILINEAEPTTNIQIRLADGGRLVQKFNHSHRISDIRLFIVDARPAMAATSFVLMTTFPNKELADENQTLKEANLLNAVIVQRLT
notes: p47, adaptor protein of p97/VCP; Homotrimer by gel filtration; the printed list of Addgene numbers (17229,21266,21267,21268) has one number more than the three plasmids named, so 21268 may be p47; source: E. coli Rosetta DE3, purified (nickel IMAC, Superose 6 gel filtration; 16.25 ml fraction)
Consider B1, for which the values for the Kd in data set [1] and in data set [2] were around 5000 nM and 31.3 nM, respectively. Further, in data set [3], the “stoichiometry N” value came to 3.
